Values of other authors, collected in patent publication US7833964B2, “Methods of reducing visceral fat by increasing levels of insulin-like growth factor-I (IGF-I)” (Tercica, Inc., priority 2003, dated 2010).

Experiments:
[1] = target: T1, human placental Type I IGF receptor (Homo sapiens, UniProt P08069); conditions: relative to the comparator named in the value; cited from earlier work
T1 construct: the human placental Type I IGF receptor; host or cells: human placenta (endogenous receptor)

Type 2 IGF receptor = conditions: relative to human IGF-I; cited from earlier work
[2] = target: T2, placental insulin receptor (Homo sapiens, UniProt P06213); conditions: relative to the comparator named in the value; cited from earlier work
T2 construct: the placental insulin receptor; host or cells: placenta (endogenous receptor)

[3] = test system: Type I IGF receptor of rat and mouse cells; conditions: relative to IGF-I; cited from earlier work

Substance | affinity to the Type I IGF receptor [1] | affinity to the Type 2 IGF receptor (Type 2 IGF receptor) | affinity to the insulin receptor [2] | affinity to the Type I IGF receptor of rat and mouse cells [3]
(Phe^23, Phe^24, Tyr^25)IGF-I: functional mutant of IGF-I described in Cascieri et al. 1988 | equipotent to human IGF-I | equipotent to human IGF-I | equipotent to human IGF-I | –
(Leu^24)IGF-I: functional mutant of IGF-I described in Cascieri et al. 1988 | lower affinity than IGF-I | – | lower affinity than IGF-I | lower affinity than IGF-I
(Ser^24)IGF-I: functional mutant of IGF-I described in Cascieri et al. 1988 | lower affinity than IGF-I | – | lower affinity than IGF-I | lower affinity than IGF-I
